Laboratory results taken from patent US20230272055A1 (Incyte, published 2023).

Legend:
[1] = molecular target: T1, human Type 1 mutCALR on Ba/F3 cells expressing MPL and Type 1 mutCALR (human); assay: cell-based or functional assay
T1 chain: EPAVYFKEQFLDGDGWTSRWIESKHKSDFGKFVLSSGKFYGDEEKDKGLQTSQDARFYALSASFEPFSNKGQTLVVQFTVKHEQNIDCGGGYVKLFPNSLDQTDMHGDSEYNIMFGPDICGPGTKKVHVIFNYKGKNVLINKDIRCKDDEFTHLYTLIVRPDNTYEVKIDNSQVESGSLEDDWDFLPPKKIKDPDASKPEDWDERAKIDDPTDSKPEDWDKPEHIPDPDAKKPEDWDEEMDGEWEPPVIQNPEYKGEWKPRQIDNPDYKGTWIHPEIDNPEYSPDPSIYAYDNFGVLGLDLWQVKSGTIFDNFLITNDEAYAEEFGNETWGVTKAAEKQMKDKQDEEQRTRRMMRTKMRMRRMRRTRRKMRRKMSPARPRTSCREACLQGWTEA

[2] = molecular target: T2, human mutCALR on BaF3 cells stably expressing human MPL and human mutCALR (MPL-mutCALR cells) (human); assay: flow cytometry, BaF3 MPL-mutCALR cells
T2 construct: also called mutant calreticulin
T2 chain: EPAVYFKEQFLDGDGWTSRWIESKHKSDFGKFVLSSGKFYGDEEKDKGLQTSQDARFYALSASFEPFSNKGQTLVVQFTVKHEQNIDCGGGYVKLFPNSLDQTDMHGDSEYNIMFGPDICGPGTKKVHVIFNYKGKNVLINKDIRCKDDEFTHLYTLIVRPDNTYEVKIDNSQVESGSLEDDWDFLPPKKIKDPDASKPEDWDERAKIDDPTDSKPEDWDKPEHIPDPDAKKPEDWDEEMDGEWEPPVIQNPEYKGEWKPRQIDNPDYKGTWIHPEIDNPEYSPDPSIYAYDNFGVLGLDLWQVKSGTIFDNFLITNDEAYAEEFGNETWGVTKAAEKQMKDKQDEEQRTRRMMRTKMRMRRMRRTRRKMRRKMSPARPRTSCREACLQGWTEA
Procedure: On the day of the assay, cells were washed and resuspended in assay buffer. Approximately 200,000 cells/well were added to 96-well plates and stained with the indicated concentration of antibodies for 30 minutes on ice. Cells were then washed and stained with goat anti-human secondary conjugated to R-phycoerythrin (R-PE) (Jackson Immuno Research Laboratories) for 30 minutes on ice. The cells were then washed and analyzed by flow cytometry.

Binder | IC50, inhibition of pSTAT5 [1] | MPL-mutCALR AUC [2] | EC50 [2]
anti-mutCALR antibody clone 22 (antibody, human IgG1, lambda, V domains shown, human IgG1) VH: EVQLVQSGAEVKKPGASVKVSCKVSGYTLTELSMQWVRQAPGKGLEWMGGFDPDDGETMYAEKFQGRLTVTEDTSTDTVYMELRSLTSEDTALYFCATSPGYDFFDYWGQGTLVTVSS VL: SYVLTQPPSVSVAPGKTARITCGGNNIGSKNVHWYQQKPGQAPVLVVYDDSDRPSGIPERFSGSNSGNTATLTINRVEAGDEADYYCQVWDSSNDLLIFGGGTKLTVLG | 0.035 µg/mL | 124000 | –
anti-mutCALR antibody clone 25 (antibody, human IgG1, lambda, V domains shown, human IgG1) VH: EVQLVQSGAEVKKPGASVKVSCKVSGYTLTELSMQWVRQAPGKGLEWMGGFDPDDGETMYAEKFQGRLTVTEDTSTDTVYMELRSLTSEDTALYFCATSPGYDFFDYWGQGTLVTVSS VL: SYELTQPPSVAVAPGQTARITCGGNNIGRKAVHWYQQKPGQAPVLVVYDDSDRPSGIPERFSGSNSGNTATLTINRVEAGDEADYYCQVWDSSNDLLIFGGGTKLTVLG | 0.024 µg/mL | 65200 | 77.3 µg/mL
anti-mutCALR antibody clone 26 (antibody, human IgG1, lambda, V domains shown, human IgG1) VH: EVQLVQSGAEVKKPGASVKVSCKVSGYTLTELSMQWVRQAPGKGLEWMGGFDPDDGETMYAEKFQGRLTVTEDTSTDTVYMELRSLTSEDTALYFCATSPGYDFFDYWGQGTLVTVSS VL: SYVLTQPPSVSVAPGQTARITCGGNNIGSKSVHWYQQKPGQAPVLVVYDDSDRPSGIPERFSGSNSGNTATLTISRVEAGDEADYYCQVWDSSIDHLIFGGGTKVTVLG | 0.125 µg/mL | 41500 | 0.42 µg/mL
anti-mutCALR antibody clone 27 (antibody, human IgG1, lambda, V domains shown, human IgG1) VH: EVQLVQSGAEVKKPGASVKVSCKVSGYTLTELSMQWVRQAPGKGLEWMGGFDPDDGETMYAEKFQGRLTVTEDTSTDTVYMELRSLTSEDTALYFCATSPGYDFFDYWGQGTLVTVSS VL: SYVLTQPPSVSVAPGQTARITCGGNNIGIKSVHWYQQKPGQAPVLVVYDDRDRPSGIPERFSGSNSGNTATLTINRVEAGDEADYYCQVWDSSNDLLIFGGGTKLTVLG | 0.037 µg/mL | 55200 | –
anti-mutCALR antibody clone 24 (antibody, human IgG1, lambda, V domains shown, human IgG1) VH: EVQLVQSGAEVKKPGASVKVSCKVSGYTLTELSMQWVRQAPGKGLEWMGGFDPDDGETMYAEKLQGRLTVTEDTSTDTVYMELRSLTSEDTALYFCATSPGYDFFDYWGQGTLVTVSS VL: SYVLTQPPSVSVAPGKTARITCGGNNIGSKSVHWYQQKPGQAPVLVVYDDSDRPSGIPERFSGSNSGNTATLTINRVEAGDEADYYCQVWDSSNDLLIFGGGTKLTVLG | 0.031 µg/mL | 67800 | 29.3 µg/mL
anti-mutCALR antibody clone 28 (antibody, human IgG1, lambda, V domains shown, human IgG1) VH: EVQLVQSGAEVKKPGASVKVSCKVSGYTLTELSMQWVRQAPGKGLEWMGGFDPDDGETMYAEKFQGRLTVTEDTSTDTVYMELRSLTSEDTALYFCATSPGYDFFDYWGQGTLVTVSS VL: SYELTQPPSVSVAPGQTARITCGGNNIGSKSVHWYQQKPGQAPVLVVYDDSDRPSGIPERFSGSNSGNTATLTISRVEAGDEADYYCQVWDADSDQLIFGGGTKLTVLG | 0.193 µg/mL | 60400 | 4.15 µg/mL
anti-mutCALR antibody clone 29 (antibody, human IgG1, lambda, V domains shown, human IgG1) VH: EVQLVQSGAEVKKPGASVKVSCKVSGYTLTELSMQWVRQAPGKGLEWMGGFDPDDGETMYAEKFQGRLTVTEDTSTDTVYMELRSLTSEDTALYFCATSPGYDFFDYWGQGTLVTVSS VL: SYVLTQPPSVSVAPGKTARITCGGNNIGSKSVHWYQQKPGQAPVLVVYDDSDRPSGIPERFSGSNSGNTATLTISRVEAGDEADYYCQVWDSSSDLLIFGGGAKLTVLG | 0.037 µg/mL | 77900 | 3.19 µg/mL
anti-mutCALR antibody clone 23 (antibody, human IgG1, lambda, V domains shown, human IgG1) VH: EVQLVQSGAEVKKPGASVKVSCKVSGYTLTELSMQWVRQAPGKGLEWMGGFDPDDGETMYAEKFQGRLTVTEDTSTDTVYMELRSLTSEDTALYFCATSPGYDFFDYWGQGTLVTVSS VL: SYVLTQPPSVSVAPGQTARITCGGNNIGIKSVHWYQQKPGQAPVLVVYDDSDRPSGIPERFSGSNSGNTATLTINRVEAGDEADYYCQVWDSSNDLLIFGGGTKLTVLG | 0.03 µg/mL | 65900 | –
